Source: US20050142568A1 (published 2005)

Experiments:
Test in all cases: GST pull-down, 35S-Met protein vs GST fusion; - means no detectable binding (footnote a)
GST-CRN-1 = molecular target: T1, GST-CRN-1 (C. elegans, UniProt Q9N3T2 21-382)
T1 construct: also called CRN-1 GST-fusion protein; not shown: glutathione S-transferase tag encoded by vector pGEX4T-2
T1 sequence (looked up): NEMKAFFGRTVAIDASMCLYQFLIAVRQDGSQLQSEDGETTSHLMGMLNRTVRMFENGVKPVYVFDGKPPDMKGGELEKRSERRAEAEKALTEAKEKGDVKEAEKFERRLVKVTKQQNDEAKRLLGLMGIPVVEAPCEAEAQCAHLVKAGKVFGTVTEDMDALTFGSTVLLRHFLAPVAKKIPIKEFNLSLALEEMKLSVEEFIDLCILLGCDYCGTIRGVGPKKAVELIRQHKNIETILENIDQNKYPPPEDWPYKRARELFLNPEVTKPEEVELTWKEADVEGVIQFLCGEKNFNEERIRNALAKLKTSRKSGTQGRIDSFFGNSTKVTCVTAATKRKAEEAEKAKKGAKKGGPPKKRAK
Method: (§1) GST fusion protein pull-down assays were performed as described in J. Parrish, H. Metters, L. Chen, D. Xue, Proc. Natl. Acad. Sci. U.S.A. 97, 11916 (2000). Purified GST or GST-fusion proteins (5 μg each) immobilized on glutathione sepharose beads were incubated with ³⁵S-Methionine labeled proteins at 4° C. for 2 hours. The beads were washed extensively and the bound proteins were resolved on a 12% SDS-PAGE and visualized by autoradiography. [0103] cDNAs corresponding to the ORFs were cloned into the pPD129.36 vector via its Nhe I and Xho I sites or the Xho I site alone. Full-length cDNAs were subcloned into the pGEX4T-2 vector for generating GST fusion proteins and for further protein purification and into the pcDNA3.1 vector for in vitro transcription/translation experiments.
(§2) ^aInteractions were evaluated relative to background binding of ³⁵S-Methionine labeled Luciferase to GST-fusion proteins and ³⁵S-Methionine labeled proteins to GST. “−” indicates no detectable binding, “+” indicates an interaction consistently observed above background levels, and “++” indicates a strong interaction. ^bBecause ³⁵S-Methionine labeled CRN-1 binds GST tightly, it was not possible to evaluate interactions between ³⁵S-CRN-1 and various GST-fusion proteins. ND, not determined.

GST-CRN-5 = molecular target: T2, GST-CRN-5 (C. elegans, UniProt G5EG59 1-214)
T2 construct: also called CRN-5 GST-fusion protein; not shown: GST carrier and the linker of vector pGEX4T-2
T2 sequence: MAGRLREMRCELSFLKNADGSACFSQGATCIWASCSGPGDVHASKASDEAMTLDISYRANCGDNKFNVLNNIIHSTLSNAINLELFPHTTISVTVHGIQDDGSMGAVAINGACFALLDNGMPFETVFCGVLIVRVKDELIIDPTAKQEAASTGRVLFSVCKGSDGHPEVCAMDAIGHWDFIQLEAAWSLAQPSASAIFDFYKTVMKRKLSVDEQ
Method: as §1, §2

GST-CRN-6 = molecular target: T3, GST-CRN-6 (C. elegans, UniProt P08515 1-218 = GST; P34508 1-373)
T3 construct: Two crn-6 cDNAs (700 bp and 1.1 kb) were isolated; the longer one made the GST fusion; also called CRN-6 GST-fusion protein
Method: as §1, §2

GST-NUC-1 = molecular target: T4, GST-NUC-1 (C. elegans, UniProt Q17778 22-375)
T4 construct: also called NUC-1 GST-fusion protein; not shown: glutathione S-transferase tag encoded by vector pGEX4T-2
T4 sequence (looked up): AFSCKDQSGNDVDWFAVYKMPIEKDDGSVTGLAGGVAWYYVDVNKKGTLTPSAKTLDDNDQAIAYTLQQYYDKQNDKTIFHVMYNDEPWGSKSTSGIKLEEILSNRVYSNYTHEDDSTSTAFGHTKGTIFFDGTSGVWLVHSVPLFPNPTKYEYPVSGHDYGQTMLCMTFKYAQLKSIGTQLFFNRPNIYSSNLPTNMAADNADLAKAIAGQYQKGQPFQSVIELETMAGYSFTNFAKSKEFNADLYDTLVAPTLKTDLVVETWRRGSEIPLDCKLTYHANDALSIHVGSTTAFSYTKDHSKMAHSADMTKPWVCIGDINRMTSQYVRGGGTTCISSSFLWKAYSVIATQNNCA
Method: as §1, §2

GST-CPS-6 = molecular target: T5, GST-CPS-6 (C. elegans, UniProt Q95NM6 1-308)
T5 construct: GST at the N-terminus as in pGEX vectors; also called CPS-6 GST-fusion protein; not shown: glutathione S-transferase tag encoded by vector pGEX4T-2
T5 sequence (looked up): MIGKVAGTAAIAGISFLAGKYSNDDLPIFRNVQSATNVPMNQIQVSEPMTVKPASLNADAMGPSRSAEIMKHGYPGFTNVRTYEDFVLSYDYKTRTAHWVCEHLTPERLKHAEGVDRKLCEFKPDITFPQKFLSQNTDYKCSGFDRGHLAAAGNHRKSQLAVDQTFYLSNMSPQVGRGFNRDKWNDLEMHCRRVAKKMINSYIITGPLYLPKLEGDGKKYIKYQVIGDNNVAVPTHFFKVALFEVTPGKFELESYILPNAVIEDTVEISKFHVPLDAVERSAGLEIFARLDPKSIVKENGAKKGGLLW
Method: as §1, §2

GST-CRN-4 = molecular target: T6, GST-CRN-4 (C. elegans, UniProt Q10905 1-298)
T6 construct: also called CRN-4 GST-fusion protein; not shown: glutathione S-transferase tag encoded by vector pGEX4T-2
T6 sequence (looked up): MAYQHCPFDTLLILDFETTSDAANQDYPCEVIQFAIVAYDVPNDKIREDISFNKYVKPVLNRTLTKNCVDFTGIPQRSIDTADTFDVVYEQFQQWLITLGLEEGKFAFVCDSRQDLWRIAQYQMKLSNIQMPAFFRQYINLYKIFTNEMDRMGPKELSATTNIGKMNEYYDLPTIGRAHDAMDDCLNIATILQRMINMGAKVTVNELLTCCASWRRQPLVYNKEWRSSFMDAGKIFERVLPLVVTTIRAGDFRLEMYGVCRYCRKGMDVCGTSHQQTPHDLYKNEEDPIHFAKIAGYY
Method: as §1, §2

Measured: binding result

T3 sequence (P08515 1-218, tags or fused parts left off): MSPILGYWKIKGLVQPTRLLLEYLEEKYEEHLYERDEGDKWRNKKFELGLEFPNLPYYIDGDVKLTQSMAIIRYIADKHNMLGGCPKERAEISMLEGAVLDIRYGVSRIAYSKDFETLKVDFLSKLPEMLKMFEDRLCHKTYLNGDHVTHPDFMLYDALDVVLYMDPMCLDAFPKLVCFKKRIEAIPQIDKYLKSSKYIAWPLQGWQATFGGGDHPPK

B1: ^35S-Methionine labeled CRN-2 (enzyme, C. elegans)
chain: MALYELVDIGANLGHPSYQKDLNDVLDRAKQAGLSKIMVTGTSEKISHECADLVEKYPGFLYFTAGVHPHDAKDWNDGTLEALKKLQENPSCVAVGECGLDFNRNFSPQDVQKEVFAKQVDMAVKLQKPLFIHEREAHEDMVKILTAAGPSLPPAVIHCFTGTVVEAKKYLEMGFYIGLTGFLWKDRSDNGVQAGLRSGEIPIEKLVLETDAPYMYPKINDKKIPKEIKSLITPETEALHNFSSFNRNEPCSLAAVCELVAAFAGRDPKEVAKITTENAKKVYKLE
no binding: all assays above
